Measurements reported in patent publication US11261437B2, “Procoagulant compounds” (Bioverativ Therapeutics Inc., priority 2012, dated 2022).
*1 amine or outer side, *2 acyl side, *3 side chain or, on linkers, in order; H or OH if unused. Bridges are numbered along the chain shown (N, C = ends). Where no end group is shown, it is not given here. [ ]: non-standard residue; d: D form. The star is where a group is joined. PABC = O=C(OCc1ccc(N[*:1])cc1)[*:2]; Pip = O=C(O)[C@@H]1CCCCN1; Acm = CC(=O)NC*

Tests used:
Assay type in all cases: biochemical
thrombin [1] = target: T1, thrombin (Homo sapiens, UniProt P00734); assay: Thrombin cleavage of Compounds 1, 4, 5 and 6 by 1.4 nM thrombin (HPLC); settings: thrombin 1.4 nM, peptide 50 μM, PBS, 37° C.
Procedure: FIG. 9 depicts the cleavage of Compounds 1, 4, 5 and 6 by 1.4 nM thrombin. Compounds 1, 4 and 5 incorporate PABC and different thrombin-cleavable substrates.
50 μL of peptide (1 mM) in water was added to 900 μL PBS. The mixture was incubated at 37° C. for 30 min, followed by 50 μL of thrombin (27.8 nM, 1 μg/mL), giving the following approximate initial concentrations: thrombin=1.4 nM, peptide=50 μM. The mixture was incubated at 37° C. Aliquots (95 μL) at various time points were quenched with 5 μL of hirudin (2 μM) and injected into the HPLC (C-18 column, CH3CN/H2O, 0 to 70% over 12 minutes, 60° C. 0.5 mL/min, ? =280 nm). The decreases of peptide peak areas were used to calculate yield.

thrombin [2] = target: T1, thrombin; assay: Thrombin cleavage of Compound 7 (HPLC); settings: 1.4 nm thrombin, peptide 10 μM, PBS, 37° C., after 30 minutes
Procedure: FIG. 5 depicts the cleavage of Compound 7 by thrombin. Upon cleavage with 1.4 nM thrombin in PBS, the clean synthetic procoagulant peptide is released, as well as the portion of the molecule comprising the thrombin substrate, the GGGG linker, and the N-terminal cysteine. To conduct the reaction, 21 μL of peptide (0.24 mM) in water was added to 476.5 μL PBS. The mixture was incubated at 37° C. for 30 min, followed by 2.5 μL of thrombin (278 nM, 10 μg/mL), giving the following approximate initial concentrations: thrombin=1.4 nM, peptide=10 μM. The mixture was incubated at 37° C. Aliquots (60 μL) at various time points were quenched with 1 μL of hirudin (10 μM) and injected into the HPLC (C-18 column, CH3CN/H2O, 0 to 70% over 12 minutes, 60° C. 0.5 mL/min, ? =280 nm). Compound 7 was cleaved rapidly by 1.4 nm thrombin. Approximately 90% of Compound 7 was cleaved after 30 minutes.

plasma (TGA assay) = assay: Cleavage of Compound 7 during the TGA assay (HPLC of plasma); settings: plasma at the end of TGA assay
Procedure: Plasma at the end of TGA assay for Compound 7 was transferred into cold CH3CN (1 mL) and centrifuged at 13 k rpm for 10 min. Supernatant (1.1 mL) was transferred to a new vial and dried by speedvac. The resulting solid was reconstituted with 30 μL of H2O and injected into the HPLC for analysis.

Row | Thrombin-mediated release of peptide IVGGQE (thrombin [1]) | Substance | Compound cleaved by thrombin (thrombin [2]) | Cleavage during the course of a TGA assay (plasma (TGA assay))
1 | not observed | Ala-Leu-Val-Pro-Arg-Ile-Val-Gly-Gly-Gln-Glu-NH2 (ALVPRIVGGQE-NH2) [Compound 6] | – | –
2 | – | Cys(Acm)-Gly-Gly-Gly-Gly-Dphe-Pip-Arg-PABC-rRAPGKLTCLASYCWLFWTGIA-NH2 (disulfide) (C(Acm)GGGG[dF][Pip]R[PABC][dR]RAPGKLTCLASYCWLFWTGIA-NH2; disulfide 18-23 (inferred)) [Compound 7] | Approximately 90% | cleaved completely
